The values that follow come from PMC12465037, “Defective targeting of PNPLA1 to lipid droplets causes ichthyosis in ABHD5-syndromic epidermal differentiation disorder” (Journal of Lipid Research, 2025).

Positions count from the first letter of the chain named. Names may count otherwise.

The assay has as its target T1, 3xFLAG-tagged full-length human PNPLA1, partially purified (pcDNA4/HisMaxC-mut-3xFLAG-hsPNPLA1) (human, UniProt Q8N8W4-1 1-532).
T1 construct: human PNPLA1, full-length open reading frame of NM_001145717.1; also called 3xFLAG-PNPLA1; source: Expi293F, transfected, partially purified (IMAC, HisTrap HP)
T1 sequence (looked up): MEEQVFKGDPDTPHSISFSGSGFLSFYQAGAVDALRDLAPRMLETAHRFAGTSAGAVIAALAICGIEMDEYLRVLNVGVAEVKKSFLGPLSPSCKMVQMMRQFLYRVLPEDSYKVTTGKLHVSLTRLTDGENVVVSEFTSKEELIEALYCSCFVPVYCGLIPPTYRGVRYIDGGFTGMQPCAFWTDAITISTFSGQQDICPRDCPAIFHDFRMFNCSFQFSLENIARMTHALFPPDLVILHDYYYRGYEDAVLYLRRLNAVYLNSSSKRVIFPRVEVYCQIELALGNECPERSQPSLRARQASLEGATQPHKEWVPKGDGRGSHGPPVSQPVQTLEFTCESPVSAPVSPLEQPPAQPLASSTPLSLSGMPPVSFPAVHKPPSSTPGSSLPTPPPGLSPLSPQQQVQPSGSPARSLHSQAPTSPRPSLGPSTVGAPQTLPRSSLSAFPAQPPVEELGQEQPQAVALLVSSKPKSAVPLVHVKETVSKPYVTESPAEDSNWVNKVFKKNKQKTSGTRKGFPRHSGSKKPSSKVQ
As to the kind of experiment: ELISA; solid-phase interaction assay: 1.8 μg/well of purified 3xFLAG-PNPLA1, PLIN2 or PLIN3 coated on MaxiSorp plates (50 mM Tris-HCl pH 8.0, 200 mM NaCl); 40 μg HEK293T lysate with Xpress-tagged ABHD5 variants in TBS with 2% BSA and 0.05% Tween 20, overnight at 4°C; anti-Xpress and HRP secondary antibody, TMB, absorbance at 620 nm, background subtracted and normalised to expression. The following applies: one partner purified.

B1: Xpress-tagged human ABHD5 p.E260K (natural protein, UniProt Q8WTS1 1-349, looked up)
chain: MAAEEEEVDSADTGERSGWLTGWLPTWCPTSISHLKEAEEKMLKCVPCTYKKEPVRISNGNKIWTLKFSHNISNKTPLVLLHGFGGGLGLWALNFGDLCTNRPVYAFDLLGFGRSSRPRFDSDAEEVENQFVESIEEWRCALGLDKMILLGHNLGGFLAAAYSLKYPSRVNHLILVEPWGFPERPDLADQDRPIPVWIRALGAALTPFNPLAGLRIAGPFGLSLVQRLRPDFKRKYSSMFEDDTVTEYIYHCNVQTPSGKTAFKNMTIPYGWAKRPMLQRIGKMHPDIPVSVIFGARSCIDGNSGTSIQSLRPHSYVKTIAILGAGHYVYADQPEEFNQKVKEICDTVD
notes: human ABHD5, full-length open reading frame of NM_016006.6 with the patient mutation p.E260K; Disease-associated (ABHD5-sEDD) missense variant made by site-directed mutagenesis; source: HEK293T, transfected (pcDNA4/HisMaxC), in lysate
Take B1: the “change of PNPLA1 binding (normalised absorbance) against wild-type ABHD5” value was found to be 25%.

B2: Xpress-tagged human ABHD5 p.H82R (natural protein, UniProt Q8WTS1 1-349, looked up)
chain: B1 chain with H82R, K260E
notes: human ABHD5, full-length open reading frame of NM_016006.6 with the patient mutation p.H82R; Disease-associated (ABHD5-sEDD) missense variant made by site-directed mutagenesis; source: HEK293T, transfected (pcDNA4/HisMaxC), in lysate
For the molecule B2, the “change of PNPLA1 binding (normalised absorbance) against wild-type ABHD5” value stood at 44%.

B3: Xpress-tagged human ABHD5 p.G271R (natural protein, UniProt Q8WTS1 1-349, looked up)
chain: B1 chain with K260E, G271R
notes: human ABHD5, full-length open reading frame of NM_016006.6 with the patient mutation p.G271R; Disease-associated (ABHD5-sEDD) missense variant made by site-directed mutagenesis; source: HEK293T, transfected (pcDNA4/HisMaxC), in lysate
As for B3, the “change of PNPLA1 binding (normalised absorbance) against wild-type ABHD5” value was -59%.

B4: Xpress-tagged human ABHD5 p.Q130P (natural protein, UniProt Q8WTS1 1-349, looked up)
chain: B1 chain with Q130P, K260E
notes: human ABHD5, full-length open reading frame of NM_016006.6 with the patient mutation p.Q130P; Disease-associated (ABHD5-sEDD) missense variant made by site-directed mutagenesis; source: HEK293T, transfected (pcDNA4/HisMaxC), in lysate
For B4, the “change of PNPLA1 binding (normalised absorbance) against wild-type ABHD5” value was found to be 16%.

B5: Xpress-tagged human ABHD5 p.R297N (natural protein, UniProt Q8WTS1 1-349, looked up)
chain: B1 chain with K260E, R297N
notes: human ABHD5, full-length open reading frame of NM_016006.6 with the patient mutation p.R297N; Disease-associated (ABHD5-sEDD) missense variant made by site-directed mutagenesis; source: HEK293T, transfected (pcDNA4/HisMaxC), in lysate
With B5, the “change of PNPLA1 binding (normalised absorbance) against wild-type ABHD5” value is -87%.

B6: Xpress-tagged human ABHD5 p.S115G (natural protein, UniProt Q8WTS1 1-349, looked up)
chain: B1 chain with S115G, K260E
notes: human ABHD5, full-length open reading frame of NM_016006.6 with the patient mutation p.S115G; Disease-associated (ABHD5-sEDD) missense variant made by site-directed mutagenesis; source: HEK293T, transfected (pcDNA4/HisMaxC), in lysate
Take B6: the “change of PNPLA1 binding (normalised absorbance) against wild-type ABHD5” value is -17%.
